# Measured values published in article doi:10.1101/394452 (bioRxiv, 2018).
# Substitutions are numbered along the chain they refer to. Names may count otherwise.
# B1: phospho-mimetic tbWag31-T73E (DivIVA/Wag31 from M. tuberculosis, Rv2145c) (natural protein)
# chain: MPLTPADVHNVAFSKPPIGKRGYNEDEVDAFLDLVENELTRLIEENSDLRQRINELDQELAAGGGAGVTPQAEQAIPAYEPEPGKPAPAAVSAGMNEEQALKAARVLSLAQDTADRLTNTAKAESDKMLADARANAEQILGEARHTADATVAEARQRADAMLADAQSRSEAQLRQAQEKADALQADAERKHSEIMGTINQQRAVLEGRLEQLRTFEREYRTRLKTYLESQLEELGQRGSAAPVDSNADAGGFDQFNRGKN
# B2: phospho-ablative tbWag31-T73A (DivIVA/Wag31 from M. tuberculosis, Rv2145c) (natural protein)
# chain: B1 chain with E73A
# Target: the molecule itself
# Experiment: small angle X-ray scattering
row,Protein,binding result
1,B1,binds
2,B2,binds
